Among the data in patent US20240101959A1, “USE OF IL-2R-BETA-GAMMA AGONIST PEPTIDES IN CELL MANUFACTURING” (MEDIKINE, INC., priority 2022, published 2024) are IC50 values, retold here.

First the molecules themselves.
T1: hu-IL-2Rγc subunit (human), P31785
T1 chain: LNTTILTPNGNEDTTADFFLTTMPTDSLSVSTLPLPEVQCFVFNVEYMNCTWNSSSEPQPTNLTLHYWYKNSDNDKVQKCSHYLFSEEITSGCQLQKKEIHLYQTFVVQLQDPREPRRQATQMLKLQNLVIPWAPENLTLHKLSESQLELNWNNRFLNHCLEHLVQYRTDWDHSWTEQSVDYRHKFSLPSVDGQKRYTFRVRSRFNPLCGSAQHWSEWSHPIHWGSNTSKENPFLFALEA

T2: hu-IL-2Rβ subunit (human, UniProt P14784 27-240, limits assumed)
T2 construct: also called human interleukin-2 receptor subunit β; CD122
T2 sequence (looked up): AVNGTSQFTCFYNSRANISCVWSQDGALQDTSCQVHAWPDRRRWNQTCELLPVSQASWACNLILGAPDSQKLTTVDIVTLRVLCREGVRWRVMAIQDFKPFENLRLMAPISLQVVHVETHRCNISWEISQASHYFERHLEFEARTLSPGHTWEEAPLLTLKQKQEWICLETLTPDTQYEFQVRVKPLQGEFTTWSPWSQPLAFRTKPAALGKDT

Positions of bridges follow the written chain, without caps; N, C: chain ends. No end group written: not given here.

For the first test, the target named is T1, hu-IL-2Rγc subunit (human), P31785. In words: phage ELISA competition assay. A general note: ELISA stands for enzyme-linked immunosorbent assay.
Molecule VECQEWGGVELCWC (modifications not checked) [SEQ ID NO 645] registered an IC50 of under 10 µM.

On to TANQTVVECQVWGGVELCWQ (modifications not checked) [SEQ ID NO 644], for which the IC50 is under 10 µM.

VVCQDWEGVELCWQ (modifications not checked) [SEQ ID NO 652] displayed an IC50 of under 10 µM.

Turning to IECEEWRGVELCWQ (modifications not checked) [SEQ ID NO 638], the IC50 was under 10 µM.

For the molecule PEGREVVVCRDWYGVELCWQ (modifications not checked) [SEQ ID NO 639], the IC50 is under 10 µM.

DVVCQNWEGVDLCWH (modifications not checked) [SEQ ID NO 653] had an IC50 of under 10 µM.

DFERSYVVCQDWDGVELCWI (modifications not checked) [SEQ ID NO 648] came in with an IC50 of under 10 µM.

Take SAPERWVECEDWQGVELCWV (modifications not checked) [SEQ ID NO 650]: the IC50 was under 10 µM.

In turn, IVCEEWRGVELCWL (modifications not checked) [SEQ ID NO 647] had a half-maximal inhibitory concentration (IC50) of under 10 µM.

The molecule IWGRTVVECQDWEGVELCWQ (modifications not checked) [SEQ ID NO 640] gave an IC50 of under 10 µM.

The target of another test is T2, hu-IL-2Rβ subunit. In words: phage ELISA competition assay.
With VRAWYPCWIARLGELCDLEVD [SEQ ID NO 178], the IC50 was under 100 µM.

GPRFYPCWIAQLGELCDLEDMG [SEQ ID NO 162] returned a half-maximal inhibitory concentration (IC50) of under 100 µM.

Consider SVVVNNWLPCWMAQLGELCDLD [SEQ ID NO 86], for which the IC50 is under 100 µM.

RVTWYPCWMAQLGELCDLEESV [SEQ ID NO 163] returned a half-maximal inhibitory concentration (IC50) of under 100 µM.

In turn, WYPCWMANLGELCDLEYPSWAQ [SEQ ID NO 158] yielded an IC50 of under 100 µM.

Molecule VRPMGVWYPCWIAQLGELCDLV [SEQ ID NO 149] had an IC50 of under 100 µM.

The molecule SLPCWMAQLGDLCELH [SEQ ID NO 181] showed an IC50 of under 100 µM.

Molecule WYPCWRAQLGELCDLDPPIAVE [SEQ ID NO 167] had a half-maximal inhibitory concentration (IC50) of under 100 µM.

As to AKGWDTWKPCWLANLGELCDLE [SEQ ID NO 140], the IC50 was under 100 µM.

In the case of WYPCWMAQLGELCDLDESTRLT (disulfide 4-13 (inferred)) [SEQ ID NO 153], the IC50 is under 100 µM.

In turn, WYPCWMAQPGELCDVD [SEQ ID NO 146] came in with a half-maximal inhibitory concentration (IC50) of under 100 µM.

In turn, HASWLPCWLAQLGELCDLEPNP [SEQ ID NO 123] registered an IC50 of under 100 µM.

Consider RDQYYPCWMAQLGELCDLDEVF [SEQ ID NO 169], for which the IC50 is under 100 µM.

On to WYPCHMAKLRELCDLD [SEQ ID NO 180], for which the IC50 was under 100 µM.

On to NEPEGGFYPCWLAQLGELCDLH (disulfide 10-19 (inferred)) [SEQ ID NO 136], for which the IC50 is under 100 µM.

As for KLQSWRWYPCWMAQLGELCDLD [SEQ ID NO 135], the IC50 was under 100 µM.

For the molecule IGSWWPCWMAQLGELCDLEPEL [SEQ ID NO 154], the IC50 is under 100 µM.

In the case of YRGWLPCWRAKLGDLCDLGQPM (disulfide 7-16 (inferred)) [SEQ ID NO 151], the half-inhibitory concentration (IC50) was under 100 µM.

Take RDESAGYYPCWIAQLGELCDLE [SEQ ID NO 141]: the IC50 is under 100 µM.

In turn, YYPCWMAQLGELCDLE [SEQ ID NO 129] yielded an IC50 of under 100 µM.

As for KSNFFPCWIAQLGQLCDLEPET [SEQ ID NO 121], the IC50 was under 100 µM.

Take RGMCYPCWFARLGELCDLECDQ [SEQ ID NO 159]: the IC50 is under 100 µM.

WLPCWMAQLGDLCDLEQYVPLP [SEQ ID NO 164] gave an IC50 of under 100 µM.

For QGPVRLWYPCWMAQLGELCDLD [SEQ ID NO 145], the IC50 is under 100 µM.

VPRWYPCWIAQLGELCDLDSDD [SEQ ID NO 150] gave an IC50 of under 100 µM.

As to WWPCWMAQLGDLCDLEETSGGT [SEQ ID NO 156], the half-maximal inhibitory concentration (IC50) was under 100 µM.

Consider SWHAETWYPCWLAQVGELCDLD [SEQ ID NO 131], for which the IC50 was under 100 µM.

In turn, WYPCWMAQLGELCDLGPTESNL [SEQ ID NO 157] had a half-inhibitory concentration (IC50) of under 100 µM.

For SGHCYPCWLAGLGELCDLNCG [SEQ ID NO 172], the IC50 is under 100 µM.

Molecule GEAWYPCWLARLGELCDMDPRV [SEQ ID NO 152] displayed an IC50 of under 100 µM.

FYPCWMANLGELCDLDFLRELN [SEQ ID NO 122] registered an IC50 of under 100 µM.

Take WYPCWIARLGELCDLETSGGFP [SEQ ID NO 171]: the IC50 was under 100 µM.

WQREWRWFPCWMAKLGDMCDLD [SEQ ID NO 83]: the IC50 is under 100 µM.

YLPCWMAHLGELCDLDSPLKAR [SEQ ID NO 165] displayed an IC50 of under 100 µM.

In the case of RQAWYPCWMAQLGELCDLEAEL [SEQ ID NO 126], the IC50 is under 100 µM.

NNSREGWFPCWLAKLGDLCDLD [SEQ ID NO 128]: the IC50 was under 100 µM.

In turn, KSGWYPCWMAKLGELCDLEAQP [SEQ ID NO 161] gave an IC50 of under 100 µM.

WYPCWMAQLGELCDLDDHWPAM [SEQ ID NO 166] showed an IC50 of under 100 µM.

WYPCWMANLGELCDLEAERSPV [SEQ ID NO 168] gave an IC50 of under 100 µM.

Consider GTTWYPCWLAQLGELCDLDVLE [SEQ ID NO 155], for which the IC50 was under 100 µM.

As for KMHKAVWLPCWMAQVGELCDLE [SEQ ID NO 132], the IC50 is under 100 µM.

Take NGAWYPCWMAQVGELCDLEERW [SEQ ID NO 124]: the IC50 is under 100 µM.

QDEAVEWFPCWMARLGELCDLE [SEQ ID NO 84] displayed an IC50 of under 100 µM.

As to WYPCWMAQLGELCDLDAGARHL [SEQ ID NO 160], the IC50 was under 100 µM.

As for WFPCWMAQLGEVCDLD [SEQ ID NO 179], the IC50 is under 100 µM.

For YYPCWMARLGELCDLD [SEQ ID NO 85], the IC50 was under 100 µM.

The target of another test is T1, hu-IL-2Rγc subunit (human), P31785.
Test: not given
The molecule VECQEWGGVELCWC (modifications not checked) [SEQ ID NO 645] came in with an IC50 of under 100 µM.

TANQTVVECQVWGGVELCWQ (modifications not checked) [SEQ ID NO 644] yielded an IC50 of under 100 µM.

As for VVCQDWEGVELCWQ (modifications not checked) [SEQ ID NO 652], the concentration for half-maximal inhibition (IC50) is under 100 µM.

IECEEWRGVELCWQ (modifications not checked) [SEQ ID NO 638]: the IC50 is under 100 µM.

For PEGREVVVCRDWYGVELCWQ (modifications not checked) [SEQ ID NO 639], the half-inhibitory concentration (IC50) was under 100 µM.

Molecule DVVCQNWEGVDLCWH (modifications not checked) [SEQ ID NO 653] returned an IC50 of under 100 µM.

DFERSYVVCQDWDGVELCWI (modifications not checked) [SEQ ID NO 648] yielded an IC50 of under 100 µM.

SAPERWVECEDWQGVELCWV (modifications not checked) [SEQ ID NO 650] had an IC50 of under 100 µM.

Take IVCEEWRGVELCWL (modifications not checked) [SEQ ID NO 647]: the IC50 was under 100 µM.

In the case of IWGRTVVECQDWEGVELCWQ (modifications not checked) [SEQ ID NO 640], the IC50 was under 100 µM.

As a reminder, the IC50 is the concentration at which inhibition is half-maximal. A low value points to greater potency in that assay.
